These are literature values, as cited in paper PMC5709052.

Data set [1] deals with CYP102A1 reductase domain (BMR) reductase domain (Priestia megaterium) (UniProt P14779).
The target is the same in data set [2]. The source holds these as a separate data set.
Data set [3] shares this target. Description: absorption spectroscopy titration.
For data set [4] the target is unchanged. Description: absorption spectroscopy titration. The source holds these as a separate data set.

Where two headings read alike, the source gives them in different places.

Sequence of UniProt P14779 (P14779 473-1049): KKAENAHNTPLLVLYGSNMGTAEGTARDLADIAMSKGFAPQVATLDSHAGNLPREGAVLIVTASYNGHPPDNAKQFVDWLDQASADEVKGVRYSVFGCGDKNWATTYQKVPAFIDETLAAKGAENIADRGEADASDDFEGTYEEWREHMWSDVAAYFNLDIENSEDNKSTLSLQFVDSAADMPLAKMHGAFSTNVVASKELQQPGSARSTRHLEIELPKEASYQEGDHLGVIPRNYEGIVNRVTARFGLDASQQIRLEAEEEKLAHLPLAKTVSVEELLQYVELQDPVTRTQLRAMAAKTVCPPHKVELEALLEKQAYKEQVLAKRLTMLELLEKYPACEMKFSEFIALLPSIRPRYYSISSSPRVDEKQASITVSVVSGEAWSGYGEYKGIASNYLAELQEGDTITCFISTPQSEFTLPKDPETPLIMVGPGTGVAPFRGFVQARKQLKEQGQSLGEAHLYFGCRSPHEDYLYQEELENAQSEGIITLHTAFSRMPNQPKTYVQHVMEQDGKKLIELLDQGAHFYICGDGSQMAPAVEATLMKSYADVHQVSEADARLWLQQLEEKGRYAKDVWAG

For the substance CYP2B4 (from UniProt P00178), the Kd in data set [1] is 370 nM.
Regarding CYP3A4 (from UniProt P08684), the Kd in data set [2] is 480 nM; in data set [3] it was 140 nM; in data set [4], 100 nM.
